Here are results for 1 molecule from paper PMC11137118 (2024).

In test [1] the target is hIL-22-ScFv (human IL-22 fused to a pancreas/liver targeting single chain variable fragment, linker (G4S)1) (human, UniProt Q9GZX6). Briefly: SPR. Background: In SPR one partner is held on a chip, and binding of the other changes the refractive index at the surface.
In test [2] the target is all variants (mouse) of IL-22-ScFv. Briefly: SPR.

B1: IL-22RA1 receptor (receptor)
chain: HAPEDPSDLLQHVKFQSSNFENILTWDSGPEGTPDTVYSIEYKTYGERDWVAKKGCQRITRKSCNLTVETGNLTELYYARVTAVSAGGRSATKMTDRFSSLQHTTLKPPDVTCISKVRSIQMIVHPTPTPIRAGDGHRLTLEDIFHDLFYHLELQVNRTYQMHLGGKQREYEFFGLTPDTEFLGTIMICVPTWAKESAPYMCRVKTLPDRTWTYSFSGAFLFSMGFLVAVLCYLSYRYVTKPPAPPNSLNVQRVLTFQPLRFIQEHVLIPVFDLSGPSSLAQPVQYSQIRVSGPREPAGAPQRHSLSEITYLGQPDISILQPSNVPPPQILSPLSYAPNAAPEVGPPSYAPQVTPEAQFPFYAPQAISKVQPSSYAPQATPDSWPPSYGVCMEGSGKDSPTGTLSSPKHLRPKGQLQKEPPAGSCMLGGLSLQEVTSLAMEESQEAKSLHQPLGICTDRTSDPNVLHSGEEGTPQYLKGQLPLLSSVQIEGHPMSLPLQPPSRPCSPSDQGPSPWGLLESLVCPKDEAKSPAPETSDLEQPTELDSLFRGLALTVQWES
Turning to B1, in test [1], the Kd (as a rule, a measure of binding affinity in units of concentration) was 3.45 nM and the koff – broadly, a measure of how fast the partners let go of each other – was found to be 0.000781 s⁻¹. In test [2], this molecule registered a Kd of 2.82 nM and a koff of 0.000872 s⁻¹.
